The target in test [1] is pKal catalytic domain Mutant 4 (human) (UniProt P03952). The test is described as follows: equilibrium Ki,app, fluorogenic substrate, tight binding fit.
For test [2] the target is unchanged. The test can be described thus: equilibrium Ki,app, enzyme inhibition with fluorogenic substrate, tight binding fit.

Residue numbers refer to the chain shown, from its start.

Chain of pKal catalytic domain Mutant 4 (human) (P03952 391-638, change not shown): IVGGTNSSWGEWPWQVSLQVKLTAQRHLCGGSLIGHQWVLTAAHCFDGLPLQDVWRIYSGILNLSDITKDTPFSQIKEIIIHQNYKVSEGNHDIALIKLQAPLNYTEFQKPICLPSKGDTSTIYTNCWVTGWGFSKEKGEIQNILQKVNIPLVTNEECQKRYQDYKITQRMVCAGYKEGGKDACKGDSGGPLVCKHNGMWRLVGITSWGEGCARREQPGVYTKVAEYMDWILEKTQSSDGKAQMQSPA

B1: DX-2922 (antibody, V domains shown)
VH: EVQLLESGGGLVQPGGSLRLSCAASGFTFSHYLMTWVRQAPGKGLEWVSYISPSGGHTIYADSVKGRFTISRDNSKNTLYLQMNSLRAEDTAVYYCARVARGIAARSRTSYFDYWGQGTLVTVSS
VL: EIVLTQSPGTLSLSPGERATLSCRTSQFVNSNYLAWYQQKPGQAPRLLIYGASSRATGIPDRFSGSGSGTDFTLTISRLEPEDFAVYYCQQSSRTPWTFGQGTKVEIK
On to B1, for which the Ki in test [1] and in test [2] was 0.25 nM throughout.

B2: X115-B07 (antibody, V domains shown)
VH: B1 VH with R98M, A100G, R101Q, A104R, A105G, D113A, Y114Q
VL: B1 VL
With B2, the Ki in test [1] and in test [2] was 0.14 nM in each case.

B3: M6-D09 (antibody, V domains shown)
VH: EVQLLESGGGLVQPGGSLRLSCAASGFTFSFYYMVWVRQAPGKGLEWVSVIYPSGGITVYADSVKGRFTISRDNSKNTLYLQMNSLRAEDTAVYYCARDKWAVMPPYYYYAMDVWGQGTTVTVSS
VL: DIQMTQSPSSLSASVGDRVTITCRASQSIRNYLNWYQQKPGKAPNLLIYAASTLQSGVPARFSGSGSGTDFTLTISSLQPEDFATYYCQQLSGYPHTFGQGTKLEIK
In test [1], B3 had a Ki of 2.9 nM.

B4: M06-D09 (antibody, V domains shown)
VH: B3 VH
VL: B3 VL
In turn, B4 gave a Ki in test [2] of 2.9 nM.

B5: M35-G04 (antibody, V domains shown)
VH: EVQLLESGGGLVQPGGSLRLSCAASGFTFSYYHMSWVRQAPGKGLEWVSVISPSGGSTKYADSVKGRFTISRDNSKNTLYLQMNSLRAEDTAVYYCARGGSSDYAWGSYRRPYYFDYWGQGTLVTVSS
VL: DIQMTQSPATLSLSPGERATLSCRASQSVSSYLAWYQQKPGQAPRLLIYDASNRATGIPARFSGSGSGTDFTLTISSLEPEDFAVYYCQQRSNWPRGFTFGPGTKVDIK
As to B5, the Ki in test [1] and in test [2] was 0.8 nM throughout.

B6: M145-D11 (Fab, V domains shown)
VH: EVQLLESGGGLVQPGGSLRLSCAASGFTFSHYRMSWVRQAPGKGLEWVSSIYPSGGRTVYADSVKGRFTISRDNSKNTLYLQMNSLRAEDTAVYYCAKDKFEWRLLFRGIGNDAFDIWGQGTMVTVSS
VL: QSVLTQPPSVSVSPGQTASITCSGDKLGDKYTSWYQQRPGQSPVLVIYQDIKRPSGIPERFSGSNSGNTATLTISGTQAMDEADYYCQAWDSPNARVFGSGTKVTVL
For B6, the Ki in test [1] and in test [2] was 0.21 nM throughout.

B7: X115-A03 (antibody, V domains shown)
VH: EVQLLESGGGLVQPGGSLRLSCAASGFTFSHYIMMWVRQAPGKGLEWVSGIYSSGGITVYADSVKGRFTISRDNSKNTLYLQMNSLRAEDTAVYYCAWRRIGVPRRDSFDMWGQGTMVTVSS
VL: DIQMTQSPSTLSASVGDRVTITCRASQSISSWLAWYQQKPGKAPKLLIYKASTLESGVPSRFSGSGSGTEFTLTISSLQPDDFATYYCQQYNTYWTFGQGTKVEIK
B7: the Ki in test [1] and in test [2] was 0.13 nM in each case.

B8: X115-G04 (antibody, V domains shown)
VH: B7 VH with W98Y, I101T, S108E, M111I
VL: B7 VL
Take B8: the Ki in test [1] and in test [2] was 0.3 nM throughout.

B9: X115-F02 (Fab, V domains shown)
VH: B7 VH with W98Y, S108E, M111I
VL: B7 VL
As for B9, the Ki in test [1] and in test [2] was 0.1 nM each time.

B10: X115-D01 (antibody, V domains shown)
VH: EVQLLESGGGLVQPGGSLRLSCAASGFTFSIYSMHWVRQAPGKGLEWVSSIYPSRGMTWYADSVKGRFTISRDNSKNTLYLQMNSLRAEDTAVYYCAYRRTGIPRRDAFDIWGQGTMVTVSS
VL: B7 VL
Turning to B10, the Ki in test [1] and in test [2] was 0.12 nM each time.

B11: M29-D09 (Fab, V domains shown)
VH: EVQLLESGGGLVQPGGSLRLSCAASGFTFSWYTMVWVRQAPGKGLEWVSYIYPSGGATFYADSVKGRFTISRDNSKNTLYLQMNSLRAEDTAVYYCAMGSYDYIWGFYSDHWGQGTLVTVSS
VL: QSALTQPPTVSVSPGQTARITCSGNKLGDKYVAWYQQKPGQSPMLVIYQDTKRPSRVSERFSGSNSANTATLSISGTQALDEADYYCQAWDSSIVIFGGGTRLTVL
B11: the Ki in test [1] and in test [2] was 0.39 nM in each case.

The values are drawn from patent publication US20260184815A1.
